# Source: US20170267986A1, “GENERATION OF MANNOSE-6-PHOSPHATE CONTAINING RECOMBINANT ALPHA-N-ACETYL GLUCOSAMINIDASE” (SHIRE HUMAN GENETIC THERAPIES, INC., priority 2014, published 2017)
# T1: rhNaglu (Homo sapiens, UniProt P54802)
# T1 construct: The N-terminal 23 amino acids are cleaved as the precursor protein enters the endoplasmic reticulum, resulting in a mature form; made in house; host or cells: human fibrosarcoma HT1080 cell clone over-expressing rhNaglu
# T1 sequence (P54802 24-743): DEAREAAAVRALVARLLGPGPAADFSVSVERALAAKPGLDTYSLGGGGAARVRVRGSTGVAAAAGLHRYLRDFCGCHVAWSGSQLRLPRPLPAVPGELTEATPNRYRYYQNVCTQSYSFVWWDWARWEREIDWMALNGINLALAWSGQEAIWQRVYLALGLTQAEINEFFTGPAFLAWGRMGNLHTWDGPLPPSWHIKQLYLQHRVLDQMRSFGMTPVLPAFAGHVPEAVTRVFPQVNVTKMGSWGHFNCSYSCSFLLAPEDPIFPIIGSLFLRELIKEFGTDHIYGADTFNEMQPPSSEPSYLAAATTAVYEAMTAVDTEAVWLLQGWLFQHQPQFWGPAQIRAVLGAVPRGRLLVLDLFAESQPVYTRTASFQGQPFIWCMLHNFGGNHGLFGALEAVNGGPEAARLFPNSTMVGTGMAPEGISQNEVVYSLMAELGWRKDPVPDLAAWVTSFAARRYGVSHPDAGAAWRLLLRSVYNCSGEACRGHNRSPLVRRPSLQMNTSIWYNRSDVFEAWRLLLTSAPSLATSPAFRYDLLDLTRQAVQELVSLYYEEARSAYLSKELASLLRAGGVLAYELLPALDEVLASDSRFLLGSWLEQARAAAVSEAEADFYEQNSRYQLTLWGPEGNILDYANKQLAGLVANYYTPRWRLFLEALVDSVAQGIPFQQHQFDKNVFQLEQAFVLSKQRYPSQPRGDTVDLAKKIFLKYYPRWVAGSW
# How the values were obtained:
# rhNaglu = molecular target: T1, rhNaglu; assay: Naglu activity assay with various inhibitors (4MU-GlcNAc fluorescent substrate); format: biochemical; details: added at 0.0625, 0.25, 1, 4 and 8 mM; 37° C., 1 hour, pH 4.5
# Procedure: A 10 mM stock of Naglu activity substrate solution was prepared by dissolving 5 mg of substrate, i.e., 4-methylumbelliferyl-N-acetyl-α-D-glucosaminide, in 250 μl of 100% DMSO. Naglu activity assay reaction buffer (0.1 M sodium acetate, 0.5 mg/ml BSA, pH 4.5) was then added to bring the volume up to 1318 μl. This 10 mM substrate stock solution was then diluted 10 fold with reaction buffer to make the final 1 mM substrate solution.
# Samples and controls were pre-diluted in reaction buffer. 10 μl of each pre-diluted sample/control were applied in duplicate wells on a black clear bottom 96 well plate. 75 μl of 1 mM substrate solution containing various concentrations of inhibitors were added to each well. The plates were sealed with plate sealer and wrapped with aluminum foil. The plates were then placed in a Boekel Jitterbug Microplate Incubator Shaker (Cole-Parmer, Vernon Hills, Ill.) and shaken (setting at #1) at 37° C. for 1 hour. 200 μl of Stop Buffer (0.2 M Glycine, pH 10.7) were then added to all of the wells and fluorescence emission (excitation/emission at 360 nm/460 nm, respectively) was measured using a SpectraMax® Plus M2 plate reader from Molecular Devices (Sunnyvale, Calif.).
# To further confirm that rhNaglu could hydrolyze UDP-GlcNAc, we investigated whether UDP-GlcNAc inhibited the hydrolysis by rhNaglu of the fluorescent substrate 4MU-GlcNAc (4-methylumbelliferyl-N-acetyl-α-D-glucosaminide) in a Naglu activity assay. Briefly, UDP-GlcNAc, as well as GlcNAc, UDP-GalNAc and Glucosamine, were added to the Naglu activity assay at 0.0625, 0.25, 1, 4 and 8 mM concentrations. The fluorescence emitted from these samples was compared to control samples only including rhNaglu and 4MU-GlcNAc.
# [1] = molecular target: Soluble cation-independent mannose-6-phosphate receptor (sCI-M6PR); assay: plate-based sCI-M6PR binding ELISA (sCI-M6PR coated, HRP anti-Naglu polyclonal #2957 detection); KD extrapolated from binding curves
# CI-M6PR = molecular target: T2, CI-M6PR (Homo sapiens, UniProt P11717); assay: Plate based sCI-M6PR binding assay (ELISA)
# T2 construct: the secreted sCI-M6PR was purified from the tissue culture medium; made in house
# Procedure: (1) Generation of sCI-M6PR (soluble CI-M6PR)—Full length M6PR was expressed in genetically modified tissue culture cells, and the secreted sCI-M6PR was purified from the tissue culture medium using an aminophenyl-M6P conjugated resin (Beljaars et al., 1999). N-terminal sequencing and LC/MS/MS analysis of the obtained protein confirmed the amino acid sequence of the sCI-M6PR, and MALDI analysis confirmed that its molecular mass was 279,492 Da.
# 100 μl of sCI-M6PR(2.5 μg/ml) in DPBS were coated on MaxiSorp® Nunc-Immuno flat-bottom 96-well plates (Thermo Fisher Scientific, Inc., Sunnyvale, Calif.). After incubation for 1 hour at 37° C., the plates was washed with ELISA wash buffer (0.1% Tween-20 in DPBS). sCI-M6PR coated wells were blocked with 300 μl ELISA blocking buffer (DPBS, 2% BSA, 0.05% Tween 20) at 37° C. for 1 hour. Appropriate dilutions of sGNPT-modified Naglu-Kif (and rhNaglu as control) were made in blocking buffer and added to the wells. After 1 hour incubation at 37° C., the plates were washed with ELISA wash buffer, and 100 μl of HRP-conjugated rabbit anti-Naglu polyclonal antibody #2957 diluted in blocking buffer were added. After 1 hour incubation at 37° C., the plates was washed again with ELISA wash buffer. The ELISA was developed using TMB peroxidase substrate solution (KPL, Inc., Gaithersburg, Mass.) by following the manufacturer's protocol.
# sGNPT transfers the phospho-GlcNAc group from UDP-GlcNAc to mannose sugar, and the resulting mannose-6-phosphate-GlcNAc is called the Capped-M6P. During the normal intracellular glycosylation process, the decapping enzyme (N-acetylglucosamine 1-phosphodiester α-N-acetyglucosaminidase) removes the GlcNAc from the Capped-M6P, to generate M6P. But without decapping, the Capped-M6P can also bind to CI-M6PR. Capped-M6P binds to domain 5 of CI-M6PR rather than to domain 3 or 9, as M6P does (Bohnsack et al. 2009). The amount of Capped-M6P on Naglu-Kif can be indirectly evaluated using a CI-M6PR plate binding assay. In this binding assay the affinity with which Naglu-Kif bound to CI-M6PR increased in proportion to the amount of sGNPT used (35 μg, 70 μg and 140 (corresponding to about 4.2 μM) (green, red and empty circle in FIG. 8, respectively)) to modify Naglu-Kif and thus the extent of Capped-M6P found on Naglu-Kif (FIG. 8). […] These binding reactions were repeated in two different buffer systems, i.e., in a sodium acetate buffer (40 mM NaAc pH 6.5, 10 mM MnCl2, 10 mM MgCl2) and in a Tris buffer (50 mM Tris pH 7.4, 10 mM MnCl2, 10 mM MgCl2), which gave similar results. Contrary to Naglu-Kif, rhNaglu was not phosphorylated by sGNPT under the same conditions due to the lack of high-mannose glycans.
Molecule,inhibition of rhNaglu activity toward 4MU-GlcNAc (rhNaglu),Kd [1],other results
"CC(=O)N[C@H]1C(O)O[C@H](CO)[C@@H](O)[C@@H]1O (stereo partly drawn) [GlcNAc, N-acetylglucosamine]",Inhibition,–,–
Naglu-Kif (high-mannose-containing recombinant human Naglu) modified in vitro with 35 µg sGNPT (from UniProt P54802 24-743) (enzyme),–,15.3 nM,–
Naglu-Kif (high-mannose-containing recombinant human Naglu) modified in vitro with 70 µg sGNPT (from UniProt P54802 24-743) (enzyme),–,5.92 nM,–
uridine diphosphate N-acetyl galactosamine [UDP-GalNAc],not inhibited,–,–
Naglu-Kif: high-mannose-containing recombinant human Naglu purified from HT1080 cells grown with 2 mg/l Kifunensine; tested after sGNPT modification (protein) DEAREAAAVRALVARLLGPGPAADFSVSVERALAAKPGLDTYSLGGGGAARVRVRGSTGVAAAAGLHRYLRDFCGCHVAWSGSQLRLPRPLPAVPGELTEATPNRYRYYQNVCTQSYSFVWWDWARWEREIDWMALNGINLALAWSGQEAIWQRVYLALGLTQAEINEFFTGPAFLAWGRMGNLHTWDGPLPPSWHIKQLYLQHRVLDQMRSFGMTPVLPAFAGHVPEAVTRVFPQVNVTKMGSWGHFNCSYSCSFLLAPEDPIFPIIGSLFLRELIKEFGTDHIYGADTFNEMQPPSSEPSYLAAATTAVYEAMTAVDTEAVWLLQGWLFQHQPQFWGPAQIRAVLGAVPRGRLLVLDLFAESQPVYTRTASFQGQPFIWCMLHNFGGNHGLFGALEAVNGGPEAARLFPNSTMVGTGMAPEGISQNEVVYSLMAELGWRKDPVPDLAAWVTSFAARRYGVSHPDAGAAWRLLLRSVYNCSGEACRGHNRSPLVRRPSLQMNTSIWYNRSDVFEAWRLLLTSAPSLATSPAFRYDLLDLTRQAVQELVSLYYEEARSAYLSKELASLLRAGGVLAYELLPALDEVLASDSRFLLGSWLEQARAAAVSEAEADFYEQNSRYQLTLWGPEGNILDYANKQLAGLVANYYTPRWRLFLEALVDSVAQGIPFQQHQFDKNVFQLEQAFVLSKQRYPSQPRGDTVDLAKKIFLKYYPRWVAGSW,–,–,Kd (CI-M6PR; Naglu-Kif modified with 35 μg sGNPT): 15.3 nM; Kd (CI-M6PR; Naglu-Kif modified with 70 μg sGNPT): 5.92 nM; Kd (CI-M6PR; Naglu-Kif modified with 140 sGNPT (about 4.2 μM)): 1.48 nM

# Further lines, with some results ahead:
inhibition of rhNaglu activity toward 4MU-GlcNAc (rhNaglu),Kd [1],Molecule,other results
not inhibited,–,N[C@H]1C(O)O[C@H](CO)[C@@H](O)[C@@H]1O (stereo partly drawn) [glucosamine],–
–,1.48 nM,Naglu-Kif (high-mannose-containing recombinant human Naglu) modified in vitro with 140 µg sGNPT (from UniProt P54802 24-743) (enzyme),–
